Patent publication US20180250396A1 (FONDAZIONE IRCCS ISTITUTO NAZIONALE DEI TUMORI, published 2018)

Assays:
[1] = biological target: T1, naive TRAIL-R2 captured from SU-DHL-4 cell lysate (human, UniProt O14763 56-440, limits assumed); assay: single clone phage ELISA (scFv on phage), TRAIL-R2 captured from SU-DHL-4 lysate
T1 construct: also called naïve TRAIL-R2; natural TRAIL-R2

[2] = biological target: T2, TRAIL-R2 on cells (TRAIL-R2+ human melanoma and other tumor cell lines) (human, UniProt O14763 56-440); assay: soluble scFv on TRAIL-R2+ cells
T2 construct: whole, on cells; Endogenous receptor on cell lines; also called TRAIL-R2+ cells

[3] = biological target: T3, Recombinant human TRAIL-R2 (R&D Systems) (human, UniProt O14763 54-182, limits assumed); assay: SPR (BIAcore), recombinant TRAIL-R2 immobilised on a CM5 chip, 5 scDb concentrations from 400 to 25 nM
T3 construct: Bought recombinant protein, amine-coupled to a CM5 chip; also called TRAIL-R2 recombinant protein; recombinant receptor

Binder	binding result [1]	binding result [2]	Kd [3]
Clone 8 anti-TRAIL-R2 ScFv isolated with Phage Display (scFv, Tested on phage and as soluble scFv) scFv: EVQLLESGGGLVQPGGSLRLSCAASGFTFSSYAMSWVRQAPGKGLEWVSAISQQGQVTDYADSVKGRFTISRDNSKNTLYLQMNSLRAEDTAVYYCAKRWNRFDYWGQGTLVIVSSGGGGSGGGGSGGGGSTDIQMTQSPSSLSASVGDRVTITCRASQSISSYLNWYQQKPGKAPKLLIYAASGLQSGVPSRFSGSGSGTDFTLTISSLQPEDFATYYCQQHSMSPNTFGQGTKVEIKRAA	binds	binds	
scDb 16e2/hUCTH1 (bispecific antibody, Made in E. coli HB2151 periplasm; also called 16e2×hUCTH1 scDb; 16E2×hUCTH1 scDb) EVQLVQSGGGVERPGGSLRLSCAASGFTFDDYGMSWVRQAPGKGLEWVSGINWNGGSTGYADSVKGRVTISRDNAKNSLYLQMNSLRAEDTAVYYCAKILGAGRGWYFDLWGKGTTVTVSSTGGGGSDIQMTQSPSSLSASVGDRVTITCRASQDIRNYLNWYQQKPGKAPKLLIYYTSRLESGVPSRFSGSGSGTDYTLTISSLQPEDFATYYCQQGNTLPWTFGQGTKVEIKRGGGGSGGGGSGGGGSEVQLVESGGGLVQPGGSLRLSCAASGYSFTGYTMNWVRQAPGKGLEWVALINPYKGVSTYNQKFKDRFTISVDKSKNTAYLQMNSLRAEDTAVYYCARSGYYGDSDWYFDVWGQGTLVTVSSGGGGSRSELTQDPAVSVALGQTVRITCQGDSLRSYYASWYQQKPGQAPVLVIYGKNNRPSGIPDRFSGSSSGNTASLTITGAQAEDEADYYCNSRDSSGNHVVFGGGTKLTVLAAAHHHHHHGAAEQKLISEEDLNGAA			148 nM
Clone 44 anti-TRAIL-R2 ScFv isolated with Phage Display (scFv, Tested on phage and as soluble scFv) scFv: QVHLRESGGGLVQPGRSLRLSCAASGFTFDDYAMHWVRQAPGKGLEWVSGISWNSGSISYADSVKGRFTISRDNAKNSLYLQMSSLRSEDTAVYYCARDPNHGGDRRDDALDMWGQGTMVTVSSGGGGSGGGGSGGGGSSELTQDPAVSVALGQTVRITCQGHSLRSYFASWYQQRPRQAPTLVIYGKNNRPSGIPDRFSGSSSGNTASLTITGAQAEDEADYYCGSRDSSSTHRGVFGGGTKLTVLGAA	binds	binds	
